Key:
[1] = molecular target: Avidin (obtained from egg white) (UniProt P02701); assay: electrochemical impedance spectroscopy; MWCNT-Av on glassy carbon electrode, incubated with bLOx or LOx; charge transfer resistance of hydroquinone/benzoquinone at 0.050 V, 0.050 M phosphate buffer pH 7.40
[2] = molecular target: Avidin (obtained from egg white) (UniProt P02701); assay: SPR; MWCNT-Av deposited on a gold disk; 0.50 mg mL^-1 bLOx or LOx injected manually, batch conditions, 25 °C; amount from the change of the resonance angle after washing with phosphate buffer

Sequence of UniProt P02701 (P02701 25-152): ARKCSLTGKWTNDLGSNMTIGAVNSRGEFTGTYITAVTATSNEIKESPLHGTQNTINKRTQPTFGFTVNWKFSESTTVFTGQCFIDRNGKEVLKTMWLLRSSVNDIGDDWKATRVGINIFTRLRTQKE

- RCT (charge transfer resistance) after interaction [1]: 200 Ω
- amount immobilised (from the SPR angle change) [2]: 2600 pg mm^−2
Substance: recombinant biotinylated lactate oxidase (enzyme)
